Measured values taken from US20210363249A1 (INNATE PHARMA, published 2021).
Blank lines part the entries; values can stand above or below the molecule they belong to.

How the values were obtained:
[1] = target: T1, Human Siglec-9 (human, UniProt Q9Y336 18-463); assay: flow cytometry on fresh purified human NK cells gated CD3-/CD56+, isotype control staining
T1 construct: Expressed on transfected CHO cells and YTS cells; also called huSiglec-9; CD329

[2] = target: Human Siglec-7 (human) (UniProt Q9Y286); assay: as above
[3] = target: T1, Human Siglec-9; assay: flow cytometry titration on neuraminidase-treated (desialylated) moDCs; goat F(ab')2 anti-human IgG (Fc) PE
Procedure: (§1) moDC were desialylated for 2 hours with 25 mU neuraminidase (Roche Diagnostics).
(§2) Binding on moDCs and neuraminidase treated moDCs was tested in a titration experiment by flow cytometry. Cells were incubated 1 h in Staining Buffer (SB) with primary antibodies at 10 ug/ml and a series of dilution of 1:10. They were washed two times with SB, then incubated 30 min with a Goat F(ab′)² Anti-Human IgG (Fc) PE (Jackson lmmunoresearch), and washed twice with SB.

[4] = target: T1, Human Siglec-9; assay: flow cytometry titration on moDC against neuraminidase-treated moDC
Procedure: as §1, §2

T1 sequence (Q9Y336 18-463): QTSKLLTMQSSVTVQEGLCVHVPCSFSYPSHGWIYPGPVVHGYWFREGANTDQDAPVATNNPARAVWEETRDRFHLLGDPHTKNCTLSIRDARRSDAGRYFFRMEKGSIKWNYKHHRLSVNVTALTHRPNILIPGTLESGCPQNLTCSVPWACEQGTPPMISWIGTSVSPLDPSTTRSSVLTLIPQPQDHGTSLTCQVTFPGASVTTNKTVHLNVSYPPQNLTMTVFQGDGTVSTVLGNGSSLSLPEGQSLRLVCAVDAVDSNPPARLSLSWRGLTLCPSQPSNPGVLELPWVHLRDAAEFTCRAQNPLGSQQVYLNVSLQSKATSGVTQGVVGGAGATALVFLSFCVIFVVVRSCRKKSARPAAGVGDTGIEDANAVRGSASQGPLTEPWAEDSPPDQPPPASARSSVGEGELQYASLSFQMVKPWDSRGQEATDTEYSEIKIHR
Sequence of Human Siglec-7 (human) (Q9Y286 19-467): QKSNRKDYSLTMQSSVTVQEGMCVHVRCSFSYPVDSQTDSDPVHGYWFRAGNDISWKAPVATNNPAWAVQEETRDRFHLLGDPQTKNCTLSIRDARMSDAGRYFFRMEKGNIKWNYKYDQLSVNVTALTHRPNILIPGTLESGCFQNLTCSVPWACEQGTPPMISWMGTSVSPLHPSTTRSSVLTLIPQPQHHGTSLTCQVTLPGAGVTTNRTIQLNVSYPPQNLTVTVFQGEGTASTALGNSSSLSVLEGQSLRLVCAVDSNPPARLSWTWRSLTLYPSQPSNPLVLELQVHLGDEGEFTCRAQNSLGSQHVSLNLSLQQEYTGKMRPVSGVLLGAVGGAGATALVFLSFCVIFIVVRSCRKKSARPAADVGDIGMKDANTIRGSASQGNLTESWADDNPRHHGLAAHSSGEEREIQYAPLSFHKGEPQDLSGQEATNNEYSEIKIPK

- EC50 (read off the curve) [3]: ~0.03 µg/mL
- fold enhancement of EC50 after neuraminidase treatment of moDC [4]: 10 fold
B2: mAbC (antibody, V domains shown)
VH: QIQLVQSGPELKKPGETVKISCKASGYTFTNYEMNWVKEAPGKGLKWMGWINTYTGESTYADDFKGRFAFSLETSASTVYLQINNLKDEDVATYFCVRDDYGRSYGFAYWGQGTLVTVSA
VL: NIVLTQSPASLTVSLGQRANISCRASESVDSYGNSFMHWYQQKPGQPPKLLIYLASKLESGVPARFSGSGSRTDFTLTIDPVETDDAATYYCHQNNEDPPWTFGGGTKLEIK
notes: Anti-Siglec-9

- EC50 (read off the curve) [3]: ~0.09 µg/mL
- fold enhancement of EC50 after neuraminidase treatment of moDC [4]: 10 fold
B3: mAbD (antibody, V domains shown)
VH: QIQLVQSGPELKKPGETVKISCKASGYTFTDYSMHWVKQAPGKGLKWMGWIITETGEPTYADDFRGRFAFSLETSANTAYLQINNLKNEDTATYFCARDFDGYWGQGTTLTVSS
VL: DILMTQSPASLSASVGETVTITCRASENIYSYLAWYQQKRGKSPQFLVYNAKTLTEGVPSRFRGSGSGTQFSLKINSLQPEDFGTYYCQHHYGFPWTFGGGTKLEIK
notes: Anti-Siglec-9

The remaining lines, values behind:

Molecule: Isotype control - PE (antibody)
- percent of NK cells in quadrant Q2 (isotype APC positive, isotype PE positive) [1]: 0.34
- percent of NK cells in quadrant Q3 (isotype APC negative, isotype PE positive) [1]: 2.54

Molecule: Isotype control - APC (antibody)
- percent of NK cells in quadrant Q1 (isotype APC positive, isotype PE negative) [2]: 0.975
- percent of NK cells in quadrant Q2 (isotype APC positive, isotype PE positive) [2]: 0.34

B1: mAbA (antibody, V domains shown)
VH: QVQLQQPGAELVKPGSPVKLSCKASYFTFTSYWMHWVRQRPGQGLEWIGEINPSNGHTNYNEKFESKATLTVDRSSSTAYMQLSSLTSEDSAVFYCANGVESYDFDDALDYWGQGTSVTVSS
VL: DIQMTQTTSSLSASLGDRVTISCRASQDINNYLNWYQQKPDGTIKLLIYYTSRLHSGVPSRFSGSGSGTDYSLTINNLEQEDIATYFCQQGNTLPFTFGGGTKLEIK
notes: Anti-Siglec-9
- EC50 (read off the curve) [3]: ~0.03 µg/mL
- fold enhancement of EC50 after neuraminidase treatment of moDC [4]: 10 fold
